Results: patent US7968297B2, “Method for identification, isolation and production of antigens to a specific pathogen” (Intercell AG, priority 2001, dated 2011)

B1: ORF0442 (protein, listed as Staphylococcus epidermidis)
chain: MKKIKTISTLVAGLGIAFLGHTTHADAAENNNQQQSTYNYSTTEVSFSNSGNLYTSGQCTWYVYDKTGGKIGSTWGNANSWATAAQAAGFTVNNTPEEGAIMQSSEGAFGHVAFVESVNNDGSITVSEMNYDGGPFAISTRTISASEASSYNYIHLN
B2: IsaA, possibly adhesion/aggregation (protein, listed as Staphylococcus aureus)
chain: MKKTIMASSLAVALGVTGYAAGTGHQAHAAEVNVDQAHLVDLAHNHQDQLNAAPIKDGAYDIHFVKDGFQYNFTSNGTTWSWSYEAANGQTAGFSNVAGADYTTSYNQGSNVQSVSYNAQSSNSNVEAVSAPTYHNYSTSTTSSSVRLSNGNTAGATGSSAAQIMAQRTGVSASTWAAIIARESNGQVNAYNPSGASGLFQTMPGWGPTNTVDQQINAAVKAYKAQGLGAWGF
B3: CRF2729 (protein)
chain: GMKMISISDEINCLICCNCVGLCSFISSAKYIFWISISSNTVAKTSIKRGKFLVTARSIRR
B4: ORF1848 (protein, listed as Staphylococcus aureus)
chain: MKLKSFVTATLALGLLSTVGAALPSHEASADSNNGYKEMTVDGYHTVPYTISVDGITALHRTYFIFPENKNVLYQEIDSKVKNELASQRGVTTEKINNAQTATYTLTLNDGNKKVVNLKKNDDAKNSIDPSTIKQIQIVVK
B5: ORF0979 (protein, listed as Staphylococcus epidermidis)
chain: MMIIVMLILSYLIGAFPSGLIIGKLFFKKDIRQYGSGNTGATNSFRVLGRPAGFIVTFLDIFKGFITVFFPLWFPVHADGVISTFFTNGLIVGLFAILGHVYPIYLKFNGGKAVATSAGVVLGVNPILLLILAIIFFSVLKIFKYVSLSSIIAAISCVIGSIIIHDYILLAVSGIVSIILIIRHKSNIVRIFKGEEPKIKWM
B6: CRF0145 (protein)
chain: FKYKKNRKIPSIMMQQIKITILYSYLTINKWEYLLNITPNKTVLPATGQKELILAVFTMFKVSKSFSLILTYFFGISQLIIGKKSANHVLTKSIIKYSSLYLIILYLGFLLIFSVSQSNVSTSFQLVLY
B7: extracellular matrix and plasma binding protein (protein, listed as Staphylococcus aureus)
chain: MNSNHAKASVTESVDKKFVVPESGINKIIPAYDEFKNSPKVNVSNLTDNKNFVASEDKLNKIADSSAASKIVDKNFVVPESKLGNIVPEYKEINNRVNVATNNPASQQVDKHFVAKGPEVNRFITQNKVNHHFITTQTHYKKVITSYKSTHVHKHVNHAKDSINKHFIVKPSESPRYTHPSQSLIIKHHFAVPGYHAHKFVTPGHASIKINHFCVVPQINSFKVIPPYGHNSHRMHVPSFQNNTTATHQNAKVNKAYDYKYFYSYKVVKGVKKYFSFSQSNGYKIGKPSLNIKNVNYQYAVPSYSPTHYVPEFKGSLPAPRV
B8: CRF1763 (protein)
chain: FEATKVPHNGSTLINNALNFNEALICLSLKVNIALIIPKIATIRGIVMLGYCGICKKAPRPAITPHTNAIYRNCFKSFTPKLLLHYYT
B9: ORF2958 (protein, listed as Staphylococcus aureus)
chain: MKMKNIAKISLLLGILATGVNTTTEKPVHAEKKPIVISENSKKLKAYYNQPSIEYKNVTGYISFIQPSIKFMNIIDGNSVNNIALIGKDKQHYHTGVHRNLNIFYVNEDKRFEGAKYSIGGITSANDKAVDLIAEARVIKEDHTGEYDYDFFPFKIDKEAMSLKEIDFKLRKYLIDNYGLYGEMSTGKITVKKKYYGKYTFELDKKLQEDRMSDVINVTDIDRIEIKVIKA
B10: ORF2098 (protein, listed as Staphylococcus epidermidis)
chain: MIKKNKEELNDMEYLVTQENGTEPPFQNEYWNHFEKGIYVDKLSGKPLFTSEDKFESNCGWPSFSKALNDDEIVELVDKSFGMIRTEVRSEKANSHLGHVFNDGPKEKGGLRYCINSAAIQFIPYDKLEELGYGDLIKHFKK
B11: ORF2669 (protein, listed as Staphylococcus epidermidis)
chain: MHYLKKVTIYISLLILVSGCGDSKETEIKQNFNKMLNVYPTKNLEDFYDKEGYRDEEFDKDDKGTWIIRSEMTKQPKGKIMTSKGMVLHMNRNTRSTTGYYVIRKISEDNKSEIDDEEKKYPIKMVNNKIIPTQKINDNKLKNEIENFKFFVQYGSFKNSDDYKEGDIEYNPNAPNYSAQYHLSNDDYNIKQLRKRYDIKTKKTPRLLMRGAGDPKGSSVGYKNLEFTFVKNNEENIYFTDSINFNPSKGKSL
B12: CRF0497 (protein)
chain: LLHHLVLLHLSQLILAQLPYQELTLVRKMDSHVLGLYPLIVYVQFQMFPYHRYQNQSIHRFDLQYFH
B13: ORF2260 (protein, listed as Staphylococcus epidermidis)
chain: MARIATKLGYPESNSFVTNTVIEFVLHNEAYPRLYRIKTRDTNLIKISQANEISRQITNGTMTLEEAKYQLEEIYVAKRDSSLPFKGIAAAIIATSFLYLQGGRLVDIITAVLAGTIGYLVVEILDRKLHAQFIPEFIGSLVIGIISVIGHAFVPSGDLATIIIAAVMPIVPGVLITNAIQDLFGGHMLMFTTKSLEALVTAFGIGAGVSSILILV
B14: ORF0355 (protein, listed as Staphylococcus epidermidis)
chain: MSKHSATLVIMFLITLLPIFQYQASAHATLEKSTPQQQGVIKDKPEAIKLEFNEPVNTKYSSVTLFDDKGKKIKDLKPITTGWSQTVVFSSEQIVNGTNTIEWHTVSADGHEVGDTFEFSVGKVRLKM
B15: CRF2155 (protein)
chain: ILSAALSTPALLNNTSILPNCSFMSDTKSTTCCSLALSTLYAFALSPLLLILSTVSDTASAMSTANTYAPY
B16: ORF2931 (protein, listed as Staphylococcus aureus)
chain: MKLKSLAVLSMSAVVLTACGNDTPKDETKSTESNTNQDTNTTKDVIALKDVKTSPEDAVKKAEETYKGQKLKGISFENSNGEWAYKVTQQKSGEESEVLVADKNKKVINKKTEKEDTMNENDNFKYSDAIDYKKAIKEGQKEFDGDIKEWSLEKDDGKLVYNIDLKKGNKKQEVTVDAKNGKVLKSEQDH
B17: CRF2349 (protein)
chain: SIIVNTVSKCIKVRLVGISIATTFLNVACGFSKIRRANFSIACADVRSETPIAKTSLDKTSSSPPSILNGQSRSNQIGIFASLNLG

Tested on: antibodies in human patient sera
Experiment: Western blot reactivity of selected clones with human sera
Format: binding
Conditions: for antibodies against selected epitope in patients: 10 to 30 different human patient sera
Experimental: For Western blot analysis approximately 10 to 20 μg of total cellular protein was separated by 10% SDS-PAGE and blotted onto HybondC membrane (Amersham Pharmacia Biotech, England). The LamB or FhuA fusion proteins were detected using human serum as the primary antibody at a dilution of 1:5000 and anti human IgG antibodies coupled to HRP at a dilution of 1:5000 as secondary antibodies. Detection was performed using the ECL detection kit (Amersham Pharmacia Biotech, England). Alternatively, rabbit anti FhuA or mouse anti LamB antibodies were used as primary antibodies in combination with the respective secondary antibodies coupled to HRP for the detection of the fusion proteins.
Subsequent sequencing of a larger number of randomly picked clones (500 to 800 per screen) led to the identification of the gene and the corresponding peptide or protein sequence that was specifically recognized by the human patient serum used for screening. The frequency with which a specific clone is selected reflects at least in part the abundance and/or affinity of the specific antibodies in the serum used for selection and recognizing the epitope presented by this clone. […] All clones that are presented in Table 2 have been verified by Western blot analysis using whole cellular extracts from single clones to show the indicated reactivity with the pool of human serum used in the screen.
10 to 30 different human patient sera were subsequently used to evaluate the presence of antibodies against the selected immunogenic peptide sequences that have been discovered in the screen according to the present invention. To eliminate possible cross-reactivity with proteins expressed by E. coli, all sera were pre-adsorbed with a total cellular lysate of E. coli DHa cells expressing FhuA protein.
This analysis is summarized in Table 2 and as an example shown in FIG. 4 and is indicative of the validity of the present screen.

[1] = positive sera / total sera tested, clone and its aa region named in the cell
[2] = clone and its aa region are named in the cell, prefix A/B/C = screen the clone came from

Molecule	Serum reactivity with relevant region (positive/total) [1]	antibodies against selected epitope in patients	Serum reactivity with relevant region (positive/total) [2]
ARF0280 (VYMLSSTRFIVRWYNNCNKSTNIINERSSGSIKSDGNSSCFFK)	SALAM59(25-43): 1/1	–	–
IgG binding protein A [compound 2548]	–	production of antibodies in a large number of patients	–
B1	–	–	C: GSBBM60(65-84): 1/1
B2	–	production of antibodies in a large number of patients	B: SELAA47(238-259): 12/12
B3	SALAQ25(40-56): 1/1	–	–
B4	E: GSBZB15(75-90): 6/41	–	–
B5	–	–	B: SELAH01(26-49): 5/12
B6	SALAZ40(81-90): 2/12	–	–
B7	–	production of antibodies in a large number of patients	–
B8	C: GSBYI30(1-22): 1/1	–	–
B9	F: SALBB59(154-168): 4/41	–	–
B10	–	–	A: SEFAQ50(15-57): 5/12
B11	–	–	B: SELAE27(22-51): 5/12
B12	GSBXF31(19-34): 1/7	–	–
B13	–	–	B: SELAG77(123-142): 12/12
B14	–	–	C: GSBBL39(63-86): 1/1
B15	SALAQ54(54-66): 1/12	–	–
B16	E: GSBZA13(22-37): 7/41	–	–
B17	GSBXC92(52-67): 2/11	–	–
